Data reported in patent US9575076.

What was measured:
[1] = target: Thyroid Stimulating Hormone (TSH) (UniProt P01215); assay: FRET competition on Alexa488-labelled antigen; competitor BHQ-labelled TSH Ab 544
[2] = target: Thyroid Stimulating Hormone (TSH) (UniProt P01215); assay: FRET competition on Alexa488-labelled antigen; competitor BHQ-labelled T25C
[3] = target: Thyroid Stimulating Hormone (TSH) (UniProt P01215); assay: FRET competition on Alexa488-labelled antigen; competitor BHQ-labelled ME130
[4] = target: Thyroid Stimulating Hormone (TSH) (UniProt P01215); assay: FRET competition on Alexa488-labelled antigen; competitor BHQ-labelled 414B
[5] = target: Chorionic Gonadotropin (CG) (UniProt P01215); assay: i-STAT sandwich cartridge, 0.4 mIU/L TSH plus CG, signal gain over TSH alone; capture 94544, detection 414B
[6] = target: Thyroid Stimulating Hormone (TSH) (UniProt P01215); assay: i-STAT sandwich cartridge with TSH; capture beads TSH Ab 544, detection conjugate M4; note: test concentration or dose not given here
[7] = target: Chorionic Gonadotropin (CG) (UniProt P01215); assay: FRET quenching titration, BHQ-10 antibody and Alexa Fluor 488 antigen
[8] = target: Follicle Stimulating Hormone (FSH) (UniProt P01215); assay: as above
Luteinizing Hormone (LH) [9] = target: Luteinizing Hormone (LH) (UniProt P01215); assay: as above
[10] = target: Thyroid Stimulating Hormone (TSH) (UniProt P01215); assay: as above
[11] = target: Thyroid Stimulating Hormone (TSH) (UniProt P01215); assay: i-STAT sandwich cartridge with TSH; capture beads TSH Ab 544, detection conjugate 414B; note: test concentration or dose not given here
[12] = target: Thyroid Stimulating Hormone (TSH) (UniProt P01215); assay: i-STAT sandwich cartridge with TSH; capture beads TSH Ab 544, detection conjugate T25C
[13] = target: Thyroid Stimulating Hormone (TSH) (UniProt P01215); assay: FRET competition on Alexa488-labelled antigen; competitor BHQ-labelled 5409
Luteinizing Hormone (LH) [14] = target: Luteinizing Hormone (LH) (UniProt P01215); assay: i-STAT sandwich cartridge, 0.4 mIU/L TSH plus LH, signal gain over TSH alone; capture 94544, detection 414B
[15] = target: Thyroid Stimulating Hormone (TSH) (UniProt P01215); assay: i-STAT sandwich cartridge with TSH; capture beads TSH Ab 544, detection conjugate 5409; note: test concentration or dose not given here
[16] = target: Follicle Stimulating Hormone (FSH) (UniProt P01215); assay: i-STAT sandwich cartridge, 0.4 mIU/L TSH plus FSH, signal gain over TSH alone; capture 94544, detection 414B
[17] = target: Thyroid Stimulating Hormone (TSH) (UniProt P01215); assay: FRET competition on Alexa488-labelled antigen; competitor BHQ-labelled M4
[18] = target: Thyroid Stimulating Hormone (TSH) (UniProt P01215); assay: i-STAT sandwich cartridge with TSH; capture beads TSH Ab 544, detection conjugate ME130; note: test concentration or dose not given here

relative fluorescence [1]: 1 normalized
relative fluorescence [2]: 0.71 normalized
relative fluorescence [3]: 0.72 normalized
relative fluorescence [4]: 0.89 normalized
CG CR (%) [5]: 117%
electrochemical current [6]: 0.11 nA
Kd [7]: 210 nM
Kd [8]: 1000 nM
Kd (Luteinizing Hormone (LH) [9]): 1000 nM
Kd [10]: 1.31 nM
electrochemical current [11]: 25 nA
electrochemical current [12]: 22.4 nA
relative fluorescence [13]: 0.96 normalized
LH CR (%) (Luteinizing Hormone (LH) [14]): 11.8%
electrochemical current [15]: 7.98 nA
FSH CR (%) [16]: 7.15%
relative fluorescence [17]: 0.92 normalized
electrochemical current [18]: 34.9 nA
Substance: TSH Ab 544 (Abbott Diagnostics Division) (antibody)
